According to patent US20200024330A1:

Assays:
Experiment in all cases: cell-based or functional assay
[1] = target: HIV-1 Env of isolate MGRM-F1-015 (subtype F), on pseudovirus (HIV-1)
[2] = target: HIV-1 Env of isolate APV-17 (pseudovirus) (HIV-1 isolate APV-17, subtype B)
[3] = target: HIV-1 Env of isolate MGRM-D-005 (HIV-1)
[4] = target: HIV-1 Env of isolate MGRM-A-010 (clade A), on pseudovirus (HIV-1)
[5] = target: HIV-1 Env of isolate 92WR024 (HIV-1)
[6] = target: HIV-1 Env of isolate 93WR029 (HIV-1)
[7] = target: HIV-1 Env of isolate MGRM-D-020 (HIV-1)
[8] = target: HIV-1 JR-CSF Env D474A (HIV-1 (isolate JR-CSF)) (UniProt P20871)
[9] = target: HIV-1 Env of isolate 93UG077 (HIV-1)
[10] = target: HIV-1 Env of isolate MGRM-A-014 (clade A), on pseudovirus (HIV-1)
[11] = target: HIV-1 Env of isolate 6535.3 (pseudovirus) (HIV-1 isolate 6535.3, subtype B)
[12] = target: HIV-1 Env of isolate 92UG114 (HIV-1)
[13] = target: HIV-1 Env of isolate MGRM-D-028 (subtype D), on pseudovirus (HIV-1)
[14] = target: HIV-1 Env of isolate 92RW008 (HIV-1)
[15] = target: HIV-1 JR-CSF Env N134A (HIV-1 (isolate JR-CSF)) (UniProt P20871)
[16] = target: HIV-1 Env of pseudovirus MGRM-Chronic-B-002, clade B (HIV-1)
[17] = target: HIV-1 MGRM-F1-017 Env (pseudovirus) (HIV-1)
[18] = target: HIV-1 Env of pseudovirus TRO.11 (Acute), clade B (HIV-1)
[19] = target: HIV-1 Env of isolate MGRM-D-012 (clade D) (HIV-1)
[20] = target: HIV-1 MGRM-C-014 Env (HIV-1)
[21] = target: HIV-1 MGRM-C-008 Env (HIV-1)
[22] = target: HIV-1 Env of isolate MGRM-D-004 (clade D) (HIV-1)
[23] = target: HIV-1 Env of isolate MGRM-D-024 (clade D) (HIV-1)
[24] = target: HIV-1 Env of pseudovirus APV_13, clade B (HIV-1)
[25] = target: HIV-1 Env of pseudovirus TRJ0.58 (Acute), clade B (HIV-1)
[26] = target: HIV-1 JRCSF envelope glycoprotein (Env) on pseudovirus (HIV-1)
[27] = target: HIV-1 93RW029 envelope glycoprotein (Env) (HIV-1)
[28] = target: HIV-1 Env of isolate MGRM-D-028 (clade D) (HIV-1)
[29] = target: HIV-1 CMU02 envelope glycoprotein (Env) on pseudovirus (HIV-1)
[30] = target: HIV-1 Env of pseudovirus QH0692.42 (Acute), clade B (HIV-1)
[31] = target: HIV-1 Env of isolate MGRM-D-003 (clade D) (HIV-1)
[32] = target: HIV-1 Env of isolate MGRM-G-015 (clade G pseudovirus) (HIV-1)
[33] = target: HIV-1 MGRM-C-026 envelope glycoprotein (Env) on pseudovirus (HIV-1)
[34] = target: HIV-1 APV6 envelope glycoprotein (Env) on pseudovirus (HIV-1)

Substance | IC50, pseudovirus neutralization [1] [mg/L] | IC50 (µg/mL) neutralization [2] [µg/mL] | IC50 [3] [mg/L] | IC50, single-round pseudovirus neutralization [4] [mg/L] | neutralization IC50 [5] [mg/L] | neutralization IC50 [6] [mg/L] | IC50 [7] [mg/L] | Fold IC50 increase relative to wild-type [8] [fold] | neutralization IC50 [9] [mg/L] | IC50, single-round pseudovirus neutralization [10] [mg/L] | IC50 (µg/mL) neutralization [11] [µg/mL] | IC50 [12] [mg/L] | IC50, pseudovirus neutralization [13] [mg/L] | neutralization IC50 [14] [mg/L] | Fold IC50 increase relative to wild-type [15] [fold] | IC50 (µg/ml), pseudovirus neutralization [16] [µg/mL] | IC50 (µg/ml), pseudovirus neutralization [17] [µg/mL] | IC50 (µg/ml), pseudovirus neutralization [18] [µg/mL] | IC50 (µg/ml), pseudovirus neutralization [19] [µg/mL] | IC50 [20] [mg/L] | also measured
5136_H01 (PGT-131) (antibody) | > 50 | > 50 | > 50 | 0.01 | > 50 | > 50 | > 50 | 1.6 | > 50 | 15.4 | 0.056 | > 50 | > 50 | 1.01 | 0.5 |  |  |  |  |  | 
b12 (antibody) |  |  |  |  |  |  |  |  |  |  |  |  |  |  |  | 0.86 | > 50 | > 50 | 0.13 | > 50 | IC50 [21]: 1.51 mg/L; IC50 (µg/ml), pseudovirus neutralization [22]: > 50 µg/mL; IC50 (µg/ml), pseudovirus neutralization [23]: 5.92 µg/mL; IC50 (µg/ml), pseudovirus neutralization [24]: > 50 µg/mL; IC50 (µg/ml), pseudovirus neutralization [25]: > 50 µg/mL; IC90 (pseudovirus neutralization) [26]: 1.17 mg/L; IC50 (µg/ml), pseudovirus neutralization [27]: > 50 µg/mL; IC50 (µg/ml), pseudovirus neutralization [28]: 0.78 µg/mL; IC90 (pseudovirus neutralization) [29]: 34.2 mg/L; IC50 (µg/ml), pseudovirus neutralization [30]: 0.73 µg/mL; IC50 (µg/ml), pseudovirus neutralization [31]: > 50 µg/mL; IC50 (µg/ml), pseudovirus neutralization [32]: > 50 µg/mL
1495_C14 (PGC14) (antibody) |  |  |  |  |  |  |  |  |  |  |  |  |  |  |  | > 50 | > 50 | > 50 | > 50 | > 50 | IC50 [21]: > 50 mg/L; IC50 (µg/ml), pseudovirus neutralization [22]: > 50 µg/mL; IC50 (µg/ml), pseudovirus neutralization [23]: > 50 µg/mL; IC50 (µg/ml), pseudovirus neutralization [24]: > 50 µg/mL; IC50 (µg/ml), pseudovirus neutralization [25]: > 50 µg/mL; IC50 (µg/ml), pseudovirus neutralization [27]: 42 µg/mL; IC50 (µg/ml), pseudovirus neutralization [28]: > 50 µg/mL; IC50 (µg/ml), pseudovirus neutralization [30]: > 50 µg/mL; IC50 (µg/ml), pseudovirus neutralization [31]: > 50 µg/mL; IC50 (µg/ml), pseudovirus neutralization [32]: > 50 µg/mL
5329_C19 (PGT-136) (antibody) | > 50 | > 50 | > 50 | > 50 | > 50 | > 50 | > 50 |  | > 50 | > 50 | > 50 | > 50 | > 50 | > 50 |  |  |  |  |  |  | 
5147_N06 (PGT-130) (antibody) | > 50 | 10.7 | > 50 | 0.005 | > 50 | 34.3 | 24.7 | 2 | 21.4 | 0.161 | 0.031 | > 50 | 0.825 | 0.039 | 0.6 |  |  |  |  |  | IC50 (ug/ml), neutralizing activity [33]: 0.0173 µg/mL; IC50 (ug/ml), neutralizing activity [34]: > 10 µg/mL; IC50 (ug/ml), neutralizing activity [29]: > 10 µg/mL
